# From patent US20200291118A1 (HANX BIOPHARMACEUTICS, published 2020)
# What was measured:
# hPD-1-his antigen [1] = molecular target: T1, hPD-1-his antigen (human, UniProt Q15116 25-167, limits assumed); assay: ELISA on coated hPD-1-his; antibody 1:5 of 2 µg/ml
# T1 construct: Coating antigen; not shown: his tag
# Procedure: (§1) An ELISA plate was coated with hPD-1-his antigen at a concentration of 0.25 μg/ml (100 μl per well) by incubation at 4° C. overnight.
# (§2) The ELISA plate coated with the hPD-1-his antigen was blocked with 1% BSA (diluted in the PBS buffer) at 37° C. for 2 hours, and then washed with 1×PBST buffer containing 1% Tween-20 for three times, with gently patting to dryness.
# (§3) The absorbance of solution in each well was measured on a microplate reader under a wavelength of 450 nm.
# hPD-1-hIgGFc antigen [2] = molecular target: T2, hPD-1-hIgGFc antigen (human, UniProt Q15116 25-167, limits assumed); assay: competition ELISA on coated hPD-1-hIgGFc; competitor PD-L1-mIgG2aFc
# T2 construct: not shown: human IgG Fc
# T2 sequence (Q15116 25-167 limits assumed): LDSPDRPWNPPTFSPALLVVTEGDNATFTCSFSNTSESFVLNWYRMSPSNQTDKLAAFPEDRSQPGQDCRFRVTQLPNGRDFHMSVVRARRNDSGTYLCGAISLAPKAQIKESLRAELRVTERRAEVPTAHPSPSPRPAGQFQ
# Procedure: A 96-well ELISA plate was coated with hPD-1-hIgGFc antigen at a concentration of 0.5 μg/ml (50 μl per well) by incubation at 4° C. overnight.
# hPD-1-his antigen [3] = molecular target: T1, hPD-1-his antigen; assay: ELISA on coated hPD-1-his
# Procedure: as §1, §2, §3
# hPD-1-hIgGFc antigen [4] = molecular target: T2, hPD-1-hIgGFc antigen; assay: competition ELISA on coated hPD-1-hIgGFc; competitor PD-L2-his tag
# Procedure: A 96-well ELISA plate was coated with hPD-1-hIgGFc antigen at a concentration of 1.0 μg/ml (100 μl per well) by incubation at 4° C. overnight.
# After the 96-well ELISA plate was washed with the PBST buffer for five times and gently patted to dryness, HRP conjugated anti-his tag mouse monoclonal antibody as a secondary antibody in 1:750 dilution (50 μl per well) was added for incubation at 37° C. for 1 hour.
# T1 sequence (Q15116 25-167 limits assumed): as above
binder,measurement,setting,value
"humanized antibody H8 (anti-PD-1 IgG antibody) (antibody, V domains shown, also called HX008; HX008 18A10 antibody) VH: EVQLVQSGGGLVQPGGSLKLSCAASGFTFSSYGMSWVRQAPGKGLDWVATISGGGRDTYYPDSVKGRFTISRDNSKNNLYLQMNSLRAEDTALYYCARQKGEAWFAYWGQGTLVTVSA VL: not shown",absorbance at 450 nm,hPD-1-his antigen [1],1.76
same,IC50,hPD-1-hIgGFc antigen [2],1 nM
same,EC50,hPD-1-his antigen [3],0.05 nM
same,IC50,hPD-1-hIgGFc antigen [4],2.7 nM
